# Reference: US20240261333A1 (published 2024)
# T1: SDF4 (human, UniProt Q9BRK5 37-362)
# T1 construct: also called NP_057260.2 (+2)
# T1 sequence (looked up): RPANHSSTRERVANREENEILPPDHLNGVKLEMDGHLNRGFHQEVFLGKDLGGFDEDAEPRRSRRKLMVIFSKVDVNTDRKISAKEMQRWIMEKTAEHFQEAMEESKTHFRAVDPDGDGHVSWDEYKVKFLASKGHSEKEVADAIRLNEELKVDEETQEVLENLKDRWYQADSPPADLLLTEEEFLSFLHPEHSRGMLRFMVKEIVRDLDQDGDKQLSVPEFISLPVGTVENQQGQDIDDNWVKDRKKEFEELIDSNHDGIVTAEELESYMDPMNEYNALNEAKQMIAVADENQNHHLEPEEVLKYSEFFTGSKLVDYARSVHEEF
# T2: GANAB (human, UniProt Q14697 29-944)
# T2 construct: also called NP_938148.1 (+1)
# T2 sequence (looked up): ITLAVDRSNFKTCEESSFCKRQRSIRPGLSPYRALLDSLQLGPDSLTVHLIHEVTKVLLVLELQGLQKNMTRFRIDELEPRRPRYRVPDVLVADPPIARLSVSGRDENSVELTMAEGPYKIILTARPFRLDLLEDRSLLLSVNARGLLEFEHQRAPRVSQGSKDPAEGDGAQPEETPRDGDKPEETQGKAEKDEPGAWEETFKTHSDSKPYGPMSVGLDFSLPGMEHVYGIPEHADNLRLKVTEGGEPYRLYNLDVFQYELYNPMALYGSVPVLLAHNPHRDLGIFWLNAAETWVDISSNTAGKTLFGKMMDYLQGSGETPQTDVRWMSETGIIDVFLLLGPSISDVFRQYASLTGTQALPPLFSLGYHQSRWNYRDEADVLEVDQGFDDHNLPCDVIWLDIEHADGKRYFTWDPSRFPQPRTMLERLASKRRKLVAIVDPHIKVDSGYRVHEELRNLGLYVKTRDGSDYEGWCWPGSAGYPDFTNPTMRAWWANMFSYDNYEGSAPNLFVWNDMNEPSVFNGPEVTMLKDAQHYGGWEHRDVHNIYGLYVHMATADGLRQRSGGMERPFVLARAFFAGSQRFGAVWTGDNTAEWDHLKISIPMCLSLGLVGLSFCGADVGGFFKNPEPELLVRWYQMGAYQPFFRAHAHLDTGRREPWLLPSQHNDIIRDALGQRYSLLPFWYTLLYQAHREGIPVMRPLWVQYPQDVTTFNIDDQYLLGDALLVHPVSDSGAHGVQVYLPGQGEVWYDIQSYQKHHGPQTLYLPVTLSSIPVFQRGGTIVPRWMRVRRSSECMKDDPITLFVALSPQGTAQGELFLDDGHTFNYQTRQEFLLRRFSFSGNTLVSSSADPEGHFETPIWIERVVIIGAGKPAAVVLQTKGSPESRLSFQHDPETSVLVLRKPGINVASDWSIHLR
# B1: N-terminal FLAG tagged B3GNT2 (enzyme, human, UniProt Q9NY97 1-397, looked up)
# chain: MSVGRRRIKLLGILMMANVFIYFIMEVSKSSSQEKNGKGEVIIPKEKFWKISTPPEAYWNREQEKLNRQYNPILSMLTNQTGEAGRLSNISHLNYCEPDLRVTSVVTGFNNLPDRFKDFLLYLRCRNYSLLIDQPDKCAKKPFLLLAIKSLTPHFARRQAIRESWGQESNAGNQTVVRVFLLGQTPPEDNHPDLSDMLKFESEKHQDILMWNYRDTFFNLSLKEVLFLRWVSTSCPDTEFVFKGDDDVFVNTHHILNYLNSLSKTKAKDLFIGDVIHNAGPHRDKKLKYYIPEVVYSGLYPPYAGGGGFLYSGHLALRLYHITDQVHLYPIDDVYTGMCLQKLGLVPEKHKGFRTFDIEEKNKNNICSYVDLMLVHSRKPQEMIDIWSQLQSAHLKC
# notes: Bait of the co-IP; pulled down with mouse anti-FLAG (Millipore Sigma F3165) from cell lysate; also called N-FLAG B3GNT2; N-term FLAG; not shown: N-terminal FLAG tag
# Experiments:
# Experiment in all cases: co-IP with anti-FLAG, mass spectrometry; lysate of cells with N-FLAG B3GNT2
# CTHRC1 = target: T3, CTHRC1 (human, UniProt Q96CG8-3 1-229, limits assumed)
# T3 construct: also called NP_001243028.1 (+1)
# T3 sequence (Q96CG8 other isoform, or with tags, fused parts or gaps limits assumed): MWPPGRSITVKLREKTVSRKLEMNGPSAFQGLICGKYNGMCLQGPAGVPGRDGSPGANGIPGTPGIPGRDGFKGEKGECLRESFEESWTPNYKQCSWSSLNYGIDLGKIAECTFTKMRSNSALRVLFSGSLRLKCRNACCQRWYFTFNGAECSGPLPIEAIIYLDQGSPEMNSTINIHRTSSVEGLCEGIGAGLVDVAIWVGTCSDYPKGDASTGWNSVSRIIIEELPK
# SDF4 = target: T1, SDF4
# HADHA = target: T4, HADHA (human, UniProt P40939 37-763)
# T4 construct: also called NP_000173.2
# T4 sequence (P40939 37-763 limits assumed): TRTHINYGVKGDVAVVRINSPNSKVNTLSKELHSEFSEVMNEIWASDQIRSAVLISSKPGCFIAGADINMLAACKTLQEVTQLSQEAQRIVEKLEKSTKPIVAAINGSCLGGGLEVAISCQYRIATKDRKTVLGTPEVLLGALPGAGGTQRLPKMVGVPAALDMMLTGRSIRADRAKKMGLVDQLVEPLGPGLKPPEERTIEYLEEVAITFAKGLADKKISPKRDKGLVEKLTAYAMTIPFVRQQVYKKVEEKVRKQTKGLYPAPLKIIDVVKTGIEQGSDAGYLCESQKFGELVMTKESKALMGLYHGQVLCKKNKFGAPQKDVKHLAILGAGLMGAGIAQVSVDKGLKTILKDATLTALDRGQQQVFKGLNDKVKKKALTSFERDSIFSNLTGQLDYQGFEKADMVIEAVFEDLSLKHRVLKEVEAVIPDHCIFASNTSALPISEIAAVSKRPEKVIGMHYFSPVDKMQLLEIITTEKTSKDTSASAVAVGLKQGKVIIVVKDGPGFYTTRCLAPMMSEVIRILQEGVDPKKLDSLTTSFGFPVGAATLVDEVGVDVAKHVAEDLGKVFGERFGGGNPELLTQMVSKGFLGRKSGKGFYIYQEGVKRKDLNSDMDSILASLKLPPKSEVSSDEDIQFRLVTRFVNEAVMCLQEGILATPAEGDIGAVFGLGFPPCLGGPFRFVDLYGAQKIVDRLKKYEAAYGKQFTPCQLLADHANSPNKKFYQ
# GANAB = target: T2, GANAB
# RPL9 = RPL9 (human, UniProt P32969 1-192)
# RPS4X = RPS4X (human, UniProt P62701 2-263)
binder,measurement,setting,value
B1,co-IP mass spectrometry count,CTHRC1,0
same,co-IP mass spectrometry count,SDF4,0
same,co-IP mass spectrometry count,HADHA,0
same,co-IP mass spectrometry count,GANAB,0
same,co-IP mass spectrometry count,RPL9,0
same,co-IP mass spectrometry count,RPS4X,14
